What all share (type): biochemical, Entelexis paramagnoliae
Substrate in data set [1]: NC(=O)c1ccc[n+]([C@@H]2O[C@H](COP(=O)(O)OP(=O)(O)OC[C@H]3O[C@@H](n4cnc5c(N)ncnc54)[C@H](OP(=O)(O)O)[C@@H]3O)[C@@H](O)[C@H]2O)c1
Kind of data set: steady-state kinetics; reaction not stated. To be noted: co-substrate not given; NADP+-dependent erythritol oxidation stated as not observed; varied: cofactor. The text has this: steady-state kinetics; reaction not stated on CmER (C. magnoliae JH110 erythrose reductase; CmER2 in Table 2)

Substrate in data set [2]: NC(=O)C1=CN([C@@H]2O[C@H](COP(=O)(O)OP(=O)(O)OC[C@H]3O[C@@H](n4cnc5c(N)ncnc54)[C@H](OP(=O)(O)O)[C@@H]3O)[C@@H](O)[C@H]2O)C=CC1
The data set can be described thus: purified protein. To be noted: D-erythrose saturating, pH 5.5, 42 °C, varied: cofactor.

Substrate in data set [3]: O=Cc1ccc([N+](=O)[O-])cc1
Kind of data set: purified protein. To be noted: NADPH in excess, pH 5.5 and 42 °C (given for D-erythrose).

One protein from PMC2902421, “Molecular cloning and biochemical characterization of a novel erythrose reductase from Candida magnoliae JH110” (Microbial Cell Factories, 2010) can be followed below.

B1: CmER (C. magnoliae JH110 erythrose reductase; CmER2 in Table 2) (Entelexis paramagnoliae) (protein)
chain: MSSTYTLTRLSAPSMVLNSGSQIPAVGYGLWKQQGSEAKDSVRCAIESGYRHLDCATAYQNHKEVGQAIREAGVPRDELWITSKVWGTHFDNPEEGLDDILEELGVEYLDLLLLHLPVAFKRNPEDPKQLRGLPVDHDMKYADVWARMEKLPKSKVRNIGVSNLTVRALDELLQTAKVTPAVNQVEMHPNLPQKKLLDYCKSKGIVVQAYSPLAQGQHENPVVTDIADDLGVSPAQVVLSWGALRGTNILPKSSTPSRIRENLELIQLSDDHMRRIDALARR
notes: N-terminal GST fusion (pGEX-5X-3) in E. coli BL21 with chaperones, GST removed by Factor Xa
B1: the values for the Km (in data set [1]; in the data set “purified protein [2]”; in “purified protein [3]”) were 240 ± 40 µM, 16 ± 10 µM and 170 ± 10 µM, respectively. In addition, the kcat in data set [1] amounted to 0.84 ± 0.06 s⁻¹; in the data set “purified protein [2]” it was 48 ± 2.5 s⁻¹; in the data set “purified protein [3]”, 1.4 ± 0.1 s⁻¹. Moreover, the results for the catalytic efficiency (kcat/Km) (in data set [1]; in the data set “purified protein [2]”; in “purified protein [3]”) were 3500 M⁻¹ s⁻¹, 3e+06 M⁻¹ s⁻¹ and 8200 M⁻¹ s⁻¹, respectively.

By Km is commonly meant the concentration of substrate that gives half-maximal velocity. Usually kcat stands for the number of substrate molecules converted per active site and unit of time at saturation. As usually defined, the kcat/Km is the turnover number divided by the Michaelis constant.
